PMC2964165 (The EMBO Journal, 2010)

Target: recombinant Impβ (human, UniProt Q14974 1-876)
Assay: pull-down

recombinant Impβ, sequence (Q14974 whole entry): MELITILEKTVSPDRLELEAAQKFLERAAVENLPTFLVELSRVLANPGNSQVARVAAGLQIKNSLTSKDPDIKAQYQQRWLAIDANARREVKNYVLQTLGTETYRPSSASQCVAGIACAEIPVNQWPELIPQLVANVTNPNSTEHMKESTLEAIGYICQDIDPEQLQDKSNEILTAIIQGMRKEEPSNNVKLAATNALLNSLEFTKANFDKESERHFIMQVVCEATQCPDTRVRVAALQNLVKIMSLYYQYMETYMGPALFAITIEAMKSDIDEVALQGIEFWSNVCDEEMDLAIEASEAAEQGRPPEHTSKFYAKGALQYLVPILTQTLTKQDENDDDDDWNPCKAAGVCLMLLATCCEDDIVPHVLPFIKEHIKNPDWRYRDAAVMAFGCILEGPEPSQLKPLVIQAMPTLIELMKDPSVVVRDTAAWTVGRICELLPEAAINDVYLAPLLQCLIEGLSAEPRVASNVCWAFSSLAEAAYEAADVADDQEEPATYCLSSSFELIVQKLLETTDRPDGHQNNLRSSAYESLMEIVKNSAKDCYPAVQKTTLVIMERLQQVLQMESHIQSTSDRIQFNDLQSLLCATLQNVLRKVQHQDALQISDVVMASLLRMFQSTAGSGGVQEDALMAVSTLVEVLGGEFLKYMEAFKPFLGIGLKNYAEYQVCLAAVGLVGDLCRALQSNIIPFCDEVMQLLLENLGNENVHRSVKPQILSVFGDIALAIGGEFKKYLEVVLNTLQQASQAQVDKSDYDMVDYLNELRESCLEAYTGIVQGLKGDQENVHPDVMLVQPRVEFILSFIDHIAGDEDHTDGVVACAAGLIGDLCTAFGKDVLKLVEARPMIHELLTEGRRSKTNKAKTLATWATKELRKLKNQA

B1: IBB peptide (peptide)
peptide: not shown
  binding result: binds
